The results in this text go back to patent publication US20250084155A1 (University of Texas, published 2025).

The assay deals with T1, HSP70 (human HSP70; the antigen of the binning, humanization and variant binding assays) (human, UniProt P0DMV8 1-641, limits assumed).
T1 construct: also called hu HSP70
The experiment in a line: BLI, anti-human Fc capture, antigen 100 nM. In outline: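 Antibody variants captured on anti-human Fc biosensors at […]; antigen at 100 nM flowed over, 25° C. Captured antigen recorded at 610 s (start of dissociation) and 1495 s (end of dissociation), giving % dissociation.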

T1 sequence (P0DMV8 whole entry, change not shown): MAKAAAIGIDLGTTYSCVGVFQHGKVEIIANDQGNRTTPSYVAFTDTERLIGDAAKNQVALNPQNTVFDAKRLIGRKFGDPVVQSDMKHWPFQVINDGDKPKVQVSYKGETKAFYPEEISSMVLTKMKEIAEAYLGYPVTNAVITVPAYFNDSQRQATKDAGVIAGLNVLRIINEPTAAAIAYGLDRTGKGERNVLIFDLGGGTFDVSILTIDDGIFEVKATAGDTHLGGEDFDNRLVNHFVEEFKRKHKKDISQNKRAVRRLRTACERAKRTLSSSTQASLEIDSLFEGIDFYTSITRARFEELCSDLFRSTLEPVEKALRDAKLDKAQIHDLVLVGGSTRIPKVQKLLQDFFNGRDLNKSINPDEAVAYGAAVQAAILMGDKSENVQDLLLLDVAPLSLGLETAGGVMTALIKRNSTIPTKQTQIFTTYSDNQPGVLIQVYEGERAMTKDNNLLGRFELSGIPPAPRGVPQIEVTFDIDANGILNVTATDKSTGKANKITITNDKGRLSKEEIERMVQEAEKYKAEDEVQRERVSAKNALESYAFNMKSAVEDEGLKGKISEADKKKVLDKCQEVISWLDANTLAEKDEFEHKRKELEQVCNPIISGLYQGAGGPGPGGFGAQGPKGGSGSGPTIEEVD

B1: h77A-1.70 (antibody, V domains shown)
VH: QIQLVQSGAEVKKPGASVKVSCKASGYTFTNYGMNWVRQAPGQGLEWMGWINTYTGEPTYSDDFKGRFTFTTDTSTSTAYMELRSLRSDDTAVYFCARYDHAMDYWGQGTLVTVSS
VL: EIVLTQSPDSLSVSLGERATINCKSSQSLLNSGTRKNYLAWYQKKAGQSPKLLIYWTSTRESGVPDRFSGSGSGTDFTLTIDRLQAEDVALYYCKQSYTLYTFGGGTKVEIK
notes: captured by anti-human Fc
Take B1: the “% Diss” value came out at 11.6%.

B2: h77A-1.80 (antibody, V domains shown)
VH: QIQLVQSGAEVKKPGASVKVSCKASGYTFTNYGMNWVRQAPGQGLEWMGWINTYTGEPKYADDFKGRFTFTTDTSTSTAYMELRSLRSDDTAVYFCARYDHVMDYWGQGTLVTVSS
VL: EIVLTQSPDSLAVSLGERATINCKSSQSLLNSGTRKNYLSWYQQKPGQSPKLIIYWTSTRESGVPDRFSGSGSGTDFTLTIDSLQAEDVAVYYCKQSYTLYTFGGGTKVEIK
notes: captured by anti-human Fc
As to B2, the “% Diss” value was -8.84%.

B3: h77A-1.77 (antibody, V domains shown)
VH: QIQLVQSGPEVKKPGASVKVSCKASGYIFTNYGMNWVRQAPGQGLEWMGWINTYTGEPTYGDDFKGRFTFTTDTSTSTAYMELRSLRSDDTAVYFCGRYDHAMDYWGQGTLVTVSS
VL: EIVLTQSPDSLAVSLGERATINCKSSQSLLNSGTRKNYLAWYQQKAGQSPKLLIYWTSTRESGVPDRFSGSGSGTDFTLTIDRLQAEDVAVYYCKQSYTLYTFGGGTKVEIK
notes: captured by anti-human Fc
On to B3, for which the “% Diss” value is 32.5%.

B4: h77A-1.85 (antibody, V domains shown)
VH: QIHLVQSGAEVKKPGASVKVSCKASGYIFTNYGMNWVRQAPGQGLEWMGWINTYTGEPTYADDFKGRFTFTTDTSTSTAYMELRSLRSDDTAVYFCVRYDHAMDYWGQGTLVTVSS
VL: EIVLTQSPDSLAVSLGERATINCKSSQSLLNSGTRKNYLSWYQKKSGQSPKLLIYWTSTRESGVPDRFSGSGSGTDFTLTIDSLQAEDVAVYYCKQSYTLYTFGGGTKVEIK
notes: captured by anti-human Fc
For the molecule B4, the “% Diss” value amounted to 16.1%.

B5: h77A-1.81 (antibody, V domains shown)
VH: QIHLVQSGAEVKKPGASVKVSCKASGYIFTNYGMNWVRQAPGQGLEWMGWINTYTGEPTYADDFKGRFTFTTDTSTSTVYMELRSLRSDDTAVYFCVRYDHAMDYWGQGTLVTVSS
VL: EIVLTQSPDSLAVSLGERATINCKSSQSLFNSGTRKNYLAWYQQKAGQSPKLLIYWTSTRESGVPDRFSGSGSGTDFTLTIDSLQAEDVAVYYCKQSYTLYTFGGGTKVEIK
notes: captured by anti-human Fc
Consider B5, for which the “% Diss” value came to 30.1%.

B6: h77A-1.72 (antibody, V domains shown)
VH: QIQLVQSGPEVKKPGASVKVSCKASGYIFTNYGMNWVRQAPGQGLEWMGWINTYTGETTYADDFKGRFTFTTDTSTTTVYMELRSLRSDDTAVYFCARYDHAMDYWGQGTLVTVSS
VL: EIVLTQSPDSLAVSLGERATINCKSSQSLLNSGTRKNYLAWYQQKAGQSPKLLIYWTSTRESGVPDRFSGSGSGTDFTLTIDSLQAEDVAVYYCKQSYTLYTFGGGTKVEIK
notes: captured by anti-human Fc
For the molecule B6, the “% Diss” value was found to be 31.5%.

B7: h77A-1.76 (antibody, V domains shown)
VH: QIQLVQSGVEVKKPGASVKVSCKASGYTFTNYGMNWVRQAPGQGLEWMGWINTYTGETTYADDFKGRFTFTTDTSTSTAYMEVRSLRSDDTAVYFCARYDHAMDYWGQGTLVTVSS
VL: EIVLTQSPDSLAVSLGERATINCKSSQSLFNSGTRKNYLAWYQQKAGQSPKLLIYWTSTRESGVPDRFSGSGSGTDFTLSIDSLQAEDVAVYYCKQSYTLYTFGGGTKVEIK
notes: captured by anti-human Fc
Regarding B7, the “% Diss” value is 12.1%.

B8: h77A-1.79 (antibody, V domains shown)
VH: QIQLVQSGAEVKKPGASVKVSCKASGYTFTKYGMNWVRQAPGQGLEWMGWINTYTGEPRYADDFKGRFTFTTDTSTSTAYMELRSLRSDDTAVYFCARYDHRMDYWGQGTLVTVSS
VL: EIVLTQSPDSLAVSLGERATINCKSSQSLLNSGTRKNYLAWYQQKPGQSPKLLIYWTSTRESGVPDRFSGSGSGTDFTLTIDSLQAEDVAVYYCKQSYNLYTFGGGTKVEIK
notes: captured by anti-human Fc
Regarding B8, the “% Diss” value is -37.4%.
